Results published in the supplement of paper PMC12764529.
± gives the half width of the 95% confidence interval.

How the values were obtained:
[1] = folding stability dG unfold from trypsin proteolysis; higher = more stable
Protocol: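 Folding stability of de novo designed mini-proteins (<80 aa, no Cys; designed by TrROS, TrMRF, ProteinMPNN and the joint model) was measured by cDNA display proteolysis with trypsin and chymotrypsin. Each protease was used at 11 concentrations in a threefold dilution series plus a no-protease condition. K50 was inferred by Bayesian fitting of sequencing counts, and dG unfold was derived against a sequence-predicted unfolded-state K50 (Tsuboyama et al. method). Sequences shown include variable-length N-terminal GS-type padding (SAGGSAGG...) inside a display construct carrying a PA tag. Rows were kept only if the AF2 dimer inter-PAE was >15, to exclude likely homo-oligomers.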

[2] = folding stability dG unfold from chymotrypsin proteolysis; higher = more stable
Summary of the method: (§1)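 Sequencing followed digestion of designed mini-proteins with trypsin and chymotrypsin, each at 11 concentrations in threefold dilutions together with a no-protease condition. The mini-proteins were under 80 residues, had no cysteine, sat in a PA-tagged cDNA display construct, and were kept only if AlphaFold2 dimer inter-PAE was above 15. From the counts, Bayesian fitting gave K50, and unfolding free energy was derived against a sequence-predicted unfolded-state K50 and a shared folded-state K50, per protease or combined.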

[3] = folding stability dG unfold (combined trypsin and chymotrypsin); higher = more stable
Summary of the method: as §1

| Sequence | folding stability dG unfold [1] [kcal/mol] | folding stability dG unfold [2] [kcal/mol] | folding stability dG unfold [3] [kcal/mol] |
| --- | --- | --- | --- |
| KKKTIEIIFPENNLIIKIEVDEETGKELTEEEIKKLLEELFPGKDIEKMSIEEIAKRLASLPGVKKVEIYPS [r1_463_TrROS_Hall] | 3.19 ± 0.09 | 1.57 ± 0.07 | 2.46 ± 0.1 |
| KKVKIEIEVIHPGPDGWVIRAKVKYPGNNKKKEKPFFFPNPKEFVKEIANELLPKNQLDDVDIEMYPLEEFS [r1_399_TrROS] | 0.973 ± 0.058 | 0.686 ± 0.14 | 0.875 ± 0.15 |
| KMKTITITVKVPKGMKVVITLANGKKIEIEVESVEDALKKIKKLLPEGAVLRVEVVKDGKVIEEKEIVIKPS [r1_276_TrROS_Hall] | 2.18 ± 0.071 | 2.96 ± 0.041 | 2.66 ± 0.15 |
| KPKIVEKKEITIKLNGKTIKITLVKNKETGKYYAKIEIFEYDKNGKLVKKETITLEFDSLEDLLEALKKLAS [r1_288_TrROS_Hall] | 2.14 ± 0.091 | 3.67 ± 0.071 | 3.18 ± 0.4 |
| KPKLTIEYDEETGKFTITLPDGRKIEIELKKDGTVVRIRVKENGKEREIELTLDELKALLDNKDVTIEIIPS [r1_18_TrROS_Hall] | 3.95 ± 0.13 | 3.45 ± 0.2 | 3.81 ± 0.23 |
| LKITLPDGAEITEITSVSVLPNGTIKITVKVRNPATGETTTVTLTITLKPAPPPEVTIVRDAETGELKLVKS [r1_411_TrROS_Hall] | 2.63 ± 0.1 | 2.14 ± 0.047 | 2.49 ± 0.23 |
| MAIVHIDFSFPDGGPTLSFEIPVPNLGPAGEEEILERASELTGISREVIRKNTEIEPIPETGDYKVTINVSS [r1_285_JUSTAS] | 1.46 ± 0.033 | 1.14 ± 0.033 | 1.36 ± 0.069 |
| MALPERLRELTPPVPPELALEAALKRAEELGLEEVREVRVLSVTPDGYIEVEIELPEGGSVRIRIPLEDLFS [r1_435_TrMRF] | 1.51 ± 0.071 | 0.608 ± 0.18 | 1.15 ± 0.12 |
| MEEIRDLPGIKWQPIERDGDRYYWMFTIPPEQFKNNGKPPVIVMAEFEPNGKWRITPWIRPWLRKLGIEPVS [r1_256_TrROS] | 1.92 ± 0.049 | 1.72 ± 0.083 | 1.92 ± 0.091 |
| MEITTTPYTDPNSETTYWLITATLPDGRRITIVITKPAGGPWTVEVYAPDGTRISSKTYSSEEEAIEEALTS [r1_478_JUSTAS] | 3.3 ± 0.051 | 3.2 ± 0.036 | 3.25 ± 0.052 |
| MKIVEITKIEKKEDGTITITIKIEPVKKGEKLKIRIIHDGKIYEAEIDAESGTITITLPKNVKELKIYIYPS [r1_428_TrROS_Hall] | 3.21 ± 0.25 | 3.46 ± 0.12 | 3.44 ± 0.28 |
| MKVIEVPIEGLPVEEIRRVIEEAIEKAKAEGNPDVKIIVTVPGPPELVEATTAVVKEIADKGDVEVSVVALS [r1_387_JUSTAS] | 3.83 ± 0.36 | 2.82 ± 0.17 | 3.52 ± 0.29 |
| MLLEFESEEELEKAIKELIEKAKKEVEEKGKKNEELKINIPVILHDKETGKETTRPITINIKPDGKITILDS [r1_316_JUSTAS] | 0.953 ± 0.13 | 1.05 ± 0.13 | 1.01 ± 0.23 |
| MLLVKAEFTIKNSDGTEETFTVLVEVPESEEEAEEAVEKEIEKIAEEKGLSTENITEIKVEIYPPSEPVKPS [r1_159_JUSTAS] | 2.1 ± 0.098 | 2.7 ± 0.077 | 2.48 ± 0.081 |
| MLTKVSTLTREDPSTGTTTTITVYKPPDGTLIVKVTTTTYSTTPDGTVTTTTSTTTVTLPPSVDVEKVFSSS [r1_243_JUSTAS] | 1.76 ± 0.068 | 3.01 ± 0.056 | 2.58 ± 0.12 |
| MLTLPDGRPAFVRARVVLPPGVRVTVVGDIPAEELERRLGRRVTPEDIVRAVVEAARRRGLTVEAVELDLRS [r1_338_TrMRF] | 1.11 ± 0.013 | 1.02 ± 0.031 | 1.09 ± 0.034 |
| MMKVKIEVRNEENEEVLTIELEVPEGEELTEEEILDLIAERLGLSKEELRKRVRIEYDEETKRIRIEIRIES [r1_285_TrROS_Hall] | 3.5 ± 0.053 | 2.27 ± 0.036 | 2.87 ± 0.08 |
| MRTVLLPIAGLPPEQVREAIERAVRAAREAGQPDTTLIVFNPGPAEQVEETTRLVQELADEPDFTVTVIPIS [r1_387_TrMRF] | 0.685 ± 0.046 | 0.0961 ± 0.12 | 0.382 ± 0.14 |
| MTIEITIVAKTEEEAKEAAEELARKLAEELGLSEEELENLKIEVEKVEVTNEDGEKYYVVKIKIELPPEFKS [r1_81_TrROS_Hall] | 2.93 ± 0.38 | 3.61 ± 0.25 | 3.25 ± 0.4 |
| MTITVRFTFQTEEEAEKAAEEVKRKLAEELGLSEEVLKKIPVEVKRTETGSENGEPVYEVTVTFKLPEELLS [r1_81_JUSTAS] | 4.17 ± 0.14 | 4.94 ± 0.084 | 4.84 ± 0.084 |
